For this experiment, the target named is T1, GST alone (UniProt P08515 1-218 = GST).
T1 construct: Control protein in the pull-downs; also called purified GST; glutathione-S-transferase
In words: pull-down of purified His6-tagged fragment with GST fusions, Western blot with anti-Xpress antibody. The protocol: A His₆-tagged recombinant protein comprising a C-terminal region of SYNCRIP (amino acids 401-561) was expressed in E. coli using pREST plasmid (Invitrogen). The recombinant protein was recovered from inclusion bodies by using a denaturing solution (6 M guanidine-HCl, 10 mM Tris-HCl (pH 8.0), 0.5 M NaCl, 1 mM β-mercapto-ethanol) and purified with ProBond resin. The denatured recombinant protein was refolded by dialysis against 10 mM Tris-HCl (pH 8.0), 10 mM β-mercaptoethanol, 0.1 M NaCl and 1 mM EDTA, with gradual decrease of urea concentration from 6 M to 0.001 M. The dialysate was centrifuged at 12,000 rpm at 4° C. for 20 min to remove the malfolded part and insoluble matter. After aliquots were incubated with various GST-fusion proteins with one of the Syt-II C2 domains, bound proteins were recovered and subjected to Western blotting using anti-Xpress antibody (Invitrogen).
For orientation: Immunoblotting shows a protein as a band on a membrane.

T1 sequence (P08515 whole entry): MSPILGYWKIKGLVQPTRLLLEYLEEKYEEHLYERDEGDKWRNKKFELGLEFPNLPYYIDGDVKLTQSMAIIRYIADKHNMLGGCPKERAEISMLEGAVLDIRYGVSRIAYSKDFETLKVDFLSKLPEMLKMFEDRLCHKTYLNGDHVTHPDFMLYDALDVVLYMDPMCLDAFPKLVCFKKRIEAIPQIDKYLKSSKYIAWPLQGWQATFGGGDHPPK

B1: His6-tagged recombinant protein comprising a C-terminal region of SYNCRIP (amino acids 401-561) (other, not shown: small tags and cut ends)
chain: IEIVFAKPPDQKRKERKAQRQAAKNQMYDDYYYYGPPHMPPPTRGRGRGGRGGYGYPPDYYGYEDYYDYYGYDYHNYRGGYEDPYYGYEDFQVGARGRGGRGARGAAPSRGRGAAPPRGRAGYSQRGGPGSARGVRGARGGAQQQRGRGGKGVEAGPDLLQ
notes: also called C-terminal region of SYBCRIP
B1: the binding result is listed as “no binding”.
